According to patent publication US11390660B2, “Uterine cancer treatments” (Immatics Biotechnologies GmbH, priority 2016, dated 2022):

Columns and labels:
[1] = tested on: CD8+ T cells; test: In vitro T-cell priming assay with aAPCs loaded with peptide/MHC complexes and anti-CD28 antibody, pMHC multimer readout; assay type: cell-based, human; settings: in vitro immunogenicity; for Wells positive [%]: HLA-A*02 restricted peptides, positive wells among evaluable (Table 10B); for wells: percentage of positive wells, healthy HLA-A*02 donors (Table 10A)
Description: In order to obtain information regarding the immunogenicity of the TUMAPs of the present invention, the inventors performed investigations using an in vitro T-cell priming assay based on repeated stimulations of CD8+ T cells with artificial antigen presenting cells (aAPCs) loaded with peptide/MHC complexes and anti-CD28 antibody.
In order to perform in vitro stimulations by artificial antigen presenting cells loaded with peptide-MHC complex (pMHC) and anti-CD28 antibody, the inventors first isolated CD8+ T cells from fresh HLA-A*02 leukapheresis products via positive selection using CD8 microbeads (Miltenyi Biotec, Bergisch-Gladbach, Germany) of healthy donors obtained from the University clinics Mannheim, Germany, after informed consent.
PBMCs and isolated CD8+ lymphocytes were incubated in T-cell medium (TCM) until use consisting of RPMI-Glutamax (Invitrogen, Karlsruhe, Germany) supplemented with 10% heat inactivated human AB serum (PAN-Biotech, Aidenbach, Germany), 100 U/ml Penicillin/100 μg/ml Streptomycin (Cambrex, Cologne, Germany), 1 mM sodium pyruvate (CC Pro, Oberdorla, Germany), 20 μg/ml Gentamycin (Cambrex). 2.5 ng/ml IL-7 (PromoCell, Heidelberg, Germany) and 10 U/ml IL-2 (Novartis Pharma, Nürnberg, Germany) were also added to the TCM at this step.
Generation of pMHC/anti-CD28 coated beads, T-cell stimulations and readout was performed in a highly defined in vitro system using four different pMHC molecules per stimulation condition and 8 different pMHC molecules per readout condition.
The purified co-stimulatory mouse IgG2a anti human CD28 Ab 9.3 (Jung et al., 1987) was chemically biotinylated using Sulfo-N-hydroxysuccinimidobiotin as recommended by the manufacturer (Perbio, Bonn, Germany). Beads used were 5.6 μm diameter streptavidin coated polystyrene particles (Bangs Laboratories, Illinois, USA).
800.000 beads/200 μI were coated in 96-well plates in the presence of 4×12.5 ng different biotin-pMHC, washed and 600 ng biotin anti-CD28 were added subsequently in a volume of 200 μI. Stimulations were initiated in 96-well plates by co-incubating 1×10^6 CD8+ T cells with 2×10^5 washed coated beads in 200 μI TCM supplemented with 5 ng/ml IL-12 (PromoCell) for 3 days at 37° C. Half of the medium was then exchanged by fresh TCM supplemented with 80 U/ml IL-2 and incubating was continued for 4 days at 37° C. This stimulation cycle was performed for a total of three times. For the pMHC multimer readout using 8 different pMHC molecules per condition, a two-dimensional combinatorial coding approach was used as previously described (Andersen et al., 2012) with minor modifications encompassing coupling to 5 different fluorochromes. Finally, multimeric analyses were performed by staining the cells with Live/dead near IR dye (Invitrogen, Karlsruhe, Germany), CD8-FITC antibody clone SK1 (BD, Heidelberg, Germany) and fluorescent pMHC multimers. For analysis, a BD LSRII SORP cytometer equipped with appropriate lasers and filters was used. Peptide specific cells were calculated as percentage of total CD8+ cells. Evaluation of multimeric analysis was done using the FlowJo software (Tree Star, Oregon, USA). In vitro priming of specific multimer+ CD8+ lymphocytes was detected by comparing to negative control stimulations.

[2] = biological target: HLA-A*02:01 (Homo sapiens, UniProt P04439, D140Y/D185E/D98H/E176V/E277Q/G131W/G231S/I119V/I121R/I166T/I218V/L300P/L318F/N151K/N90K/P208A/P217A/Q86G/Q94H/R138H/R169H/T345S); test: MHC binding assay: UV-ligand exchange with β2m ELISA; settings: peptide exchange yield, binding to HLA-A*02:01
Description: Candidate peptides for T cell based therapies according to the present invention were further tested for their MHC binding capacity (affinity). The individual peptide-MHC complexes were produced by UV-ligand exchange, where a UV-sensitive peptide is cleaved upon UV-irradiation, and exchanged with the peptide of interest as analyzed. Only peptide candidates that can effectively bind and stabilize the peptide-receptive MHC molecules prevent dissociation of the MHC complexes. To determine the yield of the exchange reaction, an ELISA was performed based on the detection of the light chain (β2m) of stabilized MHC complexes. The assay was performed as generally described in Rodenko et al. (Rodenko et al., 2006).
96 well MAXISorp plates (NUNC) were coated over night with 2 ug/ml streptavidin in PBS at room temperature, washed 4× and blocked for 1 h at 37° C. in 2% BSA containing blocking buffer. Refolded HLA-A*02:01/MLA-001 monomers served as standards, covering the range of 15-500 ng/ml. Peptide-MHC monomers of the UV-exchange reaction were diluted 100 fold in blocking buffer. Samples were incubated for 1 h at 37° C., washed four times, incubated with 2 ug/ml HRP conjugated anti-β2m for 1 h at 37° C., washed again and detected with TMB solution that is stopped with […]. Absorption was measured at 450 nm. Candidate peptides that show a high exchange yield (preferably higher than 50%, most preferred higher than 75%) are generally preferred for a generation and production of antibodies or fragments thereof, and/or T cell receptors or fragments thereof, as they show sufficient avidity to the MHC molecules and prevent dissociation of the MHC complexes.

10 (AILDVVVNL; listed as Homo sapiens) [compound 10]
Wells positive [%] [1]: + (<20% = +) | Peptide exchange [2]: ++++ (> 75% = ++++)

14 (FLVDSLISA; listed as Homo sapiens) [compound 14]
Wells positive [%] [1]: ++ (20%-49% = ++) | Peptide exchange [2]: ++++ (> 75% = ++++)

2 (VLLDIFTGV; listed as Homo sapiens) [compound 2]
Wells positive [%] [1]: +++ (50%-69% = +++) | Peptide exchange [2]: ++++ (> 75% = ++++)

1 (KLLDNLHDL; listed as Homo sapiens) [compound 1]
Wells positive [%] [1]: + (<20% = +) | Peptide exchange [2]: ++++ (> 75% = ++++)

57 (ALADLTGTVV; listed as Homo sapiens) [compound 57]
wells [1]: + (<20% = +)

69 (VLTEFTREV; listed as Homo sapiens) [compound 69]
wells [1]: + (<20% = +)

62 (SLWGGDVVL; listed as Homo sapiens) [compound 62]
wells [1]: ++ (20%-49% = ++)

9 (SLYPGTETM; listed as Homo sapiens) [compound 9]
Wells positive [%] [1]: + (<20% = +) | Peptide exchange [2]: +++ (>50 = +++)

3 (GLDGATYTV; listed as Homo sapiens) [compound 3]
Wells positive [%] [1]: ++++ (> = 70% = ++++) | Peptide exchange [2]: +++ (>50 = +++)

23 (GLGPNLVGV; listed as Homo sapiens) [compound 23]
Wells positive [%] [1]: ++++ (> = 70% = ++++) | Peptide exchange [2]: ++++ (> 75% = ++++)

58 (GVLENIFGV; listed as Homo sapiens) [compound 58]
wells [1]: + (<20% = +)

64 (ALYDSVILL; listed as Homo sapiens) [compound 64]
wells [1]: + (<20% = +)

7 (SILSLLIKL; listed as Homo sapiens) [compound 7]
Wells positive [%] [1]: ++ (20%-49% = ++) | Peptide exchange [2]: ++ (>20% = ++)

34 (AIAGRLLGV; listed as Homo sapiens) [compound 34]
Peptide exchange [2]: ++++ (> 75% = ++++)

20 (ALLGFVTDL; listed as Homo sapiens) [compound 20]
Wells positive [%] [1]: ++ (20%-49% = ++) | Peptide exchange [2]: ++++ (> 75% = ++++)

56 (LLLEILHEI; listed as Homo sapiens) [compound 56]
wells [1]: + (<20% = +)

29 (IGIGPVLNI; listed as Homo sapiens) [compound 29]
Peptide exchange [2]: + (>10% = +)

30 (TLLDRVAVI; listed as Homo sapiens) [compound 30]
Peptide exchange [2]: +++ (>50 = +++)

6 (SLLSELVEA; listed as Homo sapiens) [compound 6]
Wells positive [%] [1]: + (<20% = +) | Peptide exchange [2]: ++++ (> 75% = ++++)

31 (ALLTAVTNV; listed as Homo sapiens) [compound 31]
Peptide exchange [2]: +++ (>50 = +++)

51 (TVPPVFVSV; listed as Homo sapiens) [compound 51]
Peptide exchange [2]: +++ (>50 = +++)

11 (ALDPIIHGL; listed as Homo sapiens) [compound 11]
Peptide exchange [2]: ++++ (> 75% = ++++)

41 (YIDDIFSGV; listed as Homo sapiens) [compound 41]
Peptide exchange [2]: ++++ (> 75% = ++++)

8 (SVMELLQGV; listed as Homo sapiens) [compound 8]
Peptide exchange [2]: ++++ (> 75% = ++++)

59 (QLLAGVFLA; listed as Homo sapiens) [compound 59]
wells [1]: + (<20% = +)

43 (VIANEIEKV; listed as Homo sapiens) [compound 43]
Peptide exchange [2]: +++ (>50 = +++)

50 (TLSTVIATV; listed as Homo sapiens) [compound 50]
Peptide exchange [2]: ++++ (> 75% = ++++)
